Data reported in patent US5985836A, “Alpha-1 proteinase inhibitor binding peptides” (Bayer Corporation, priority 1998, dated 1999).
Ends that are not written are not given here.

Tests used:
A1PI [1] = biological target: T1, A1PI (Homo sapiens, UniProt P01009); assay: A1PI binding on peptide-resin column, injection of 1 mg A1PI in equilibration buffer; conditions: for % of Total A1PI Eluted by Fraction (Based on Absorbance at 280 nm), 1M NaCl / % of Total A1PI Eluted by Fraction (Based on Absorbance at 280 nm), 2% Acetic Acid / % of Total A1PI Eluted by Fraction (Based on Absorbance at 280 nm), Flowthrough: 1 mg A1PI; for Percent AlPI Eluted by Fraction, 1M NaCl / Percent AlPI Eluted by Fraction, 2% Acetic Acid / Percent AlPI Eluted by Fraction, Flowthrough: 1 mg AlPI
T1 construct: Human plasma is currently the only approved source of therapeutic AlPI
T1 sequence (P01009 25-418): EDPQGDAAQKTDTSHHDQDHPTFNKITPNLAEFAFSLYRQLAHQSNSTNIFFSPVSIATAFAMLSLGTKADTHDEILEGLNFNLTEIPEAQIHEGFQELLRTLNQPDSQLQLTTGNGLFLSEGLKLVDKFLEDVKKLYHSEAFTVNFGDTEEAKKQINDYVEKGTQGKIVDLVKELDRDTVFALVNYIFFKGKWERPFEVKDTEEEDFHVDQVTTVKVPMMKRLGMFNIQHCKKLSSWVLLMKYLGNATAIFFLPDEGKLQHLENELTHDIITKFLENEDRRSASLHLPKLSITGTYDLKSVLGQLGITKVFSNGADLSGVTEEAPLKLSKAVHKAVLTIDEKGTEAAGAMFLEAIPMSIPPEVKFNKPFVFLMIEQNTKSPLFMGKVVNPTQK
Procedure, shortened: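 Percent of total eluted A1PI per fraction (flowthrough, NaCl steps, 2% acetic acid) determined by A280 integration or immunonephelometry. Columns of peptide-derivatized A-Totda-Toyopearl resin (0.1 mmole/g) received 1 mg A1PI at 4 °C or 20 °C, flow 865 or 523 μl/min.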

A1PI [2] = biological target: T1, A1PI; assay: Capture and elution of active A1PI with 2M urea buffer (elastase inhibition activity assay and immunonephelometry); format: binding; conditions: 4° C.
[3] = peptide density 6 μmol/g, 4° C.
[4] = peptide density 6 μmol/g, 20° C.
[5] = peptide density 17 μmol/g, 4° C.
[6] = peptide density 17 μmol/g, 20° C.
[7] = peptide density 25 μmol/g, 4° C.
[8] = peptide density 25 μmol/g, 20° C.
[9] = peptide density 39 μmol/g, 4° C.
[10] = peptide density 39 μmol/g, 20° C.
[11] = peptide density 54 μmol/g, 4° C.
[12] = peptide density 54 μmol/g, 20° C.
[13] = peptide density 58 μmol/g, 4° C.
[14] = peptide density 58 μmol/g, 20° C.
[15] = peptide density 99 μmol/g, 4° C.
[16] = peptide density 99 μmol/g, 20° C.
[17] = peptide density 135 μmol/g, 4° C.
[18] = peptide density 135 μmol/g, 20° C.
[19] = sequence truncations, 4° C., immunonephelometry
[20] = sequence truncations, 20° C., immunonephelometry

VIFLVR
% of Total A1PI Eluted by Fraction (Based on Absorbance at 280 nm), 1M NaCl (A1PI [1]; Trp position mutations, 4° C.): 3% | % of Total A1PI Eluted by Fraction (Based on Absorbance at 280 nm), 2% Acetic Acid (A1PI [1]; Trp position mutations, 4° C.): 97% | % of Total A1PI Eluted by Fraction (Based on Absorbance at 280 nm), Flowthrough (A1PI [1]; Trp position mutations, 4° C.): 0% | % of Total A1PI Eluted by Fraction (Based on Absorbance at 280 nm), 1M NaCl (A1PI [1]; Trp position mutations, 20° C.): 8% | % of Total A1PI Eluted by Fraction (Based on Absorbance at 280 nm), 2% Acetic Acid (A1PI [1]; Trp position mutations, 20° C.): 92% | % of Total A1PI Eluted by Fraction (Based on Absorbance at 280 nm), Flowthrough (A1PI [1]; Trp position mutations, 20° C.): 0% | % of Total A1PI Eluted by Fraction (Based on Absorbance at 280 nm), 1M NaCl (A1PI [1]; VIFLVR point mutations, 4° C.): 3% | % of Total A1PI Eluted by Fraction (Based on Absorbance at 280 nm), 2% Acetic Acid (A1PI [1]; VIFLVR point mutations, 4° C.): 97% | % of Total A1PI Eluted by Fraction (Based on Absorbance at 280 nm), Flowthrough (A1PI [1]; VIFLVR point mutations, 4° C.): 0% | % of Total A1PI Eluted by Fraction (Based on Absorbance at 280 nm), 1M NaCl (A1PI [1]; VIFLVR point mutations, 20° C.): 8% | % of Total A1PI Eluted by Fraction (Based on Absorbance at 280 nm), 2% Acetic Acid (A1PI [1]; VIFLVR point mutations, 20° C.): 92% | % of Total A1PI Eluted by Fraction (Based on Absorbance at 280 nm), Flowthrough (A1PI [1]; VIFLVR point mutations, 20° C.): 0% | Percent AlPI Eluted by Fraction, 1M NaCl (A1PI [1]; [3]): 21% | Percent AlPI Eluted by Fraction, 2% Acetic Acid (A1PI [1]; [3]): 0% | Percent AlPI Eluted by Fraction, Flowthrough (A1PI [1]; [3]): 87% | Percent AlPI Eluted by Fraction, 1M NaCl (A1PI [1]; [4]): 13% | Percent AlPI Eluted by Fraction, 2% Acetic Acid (A1PI [1]; [4]): 0% | Percent AlPI Eluted by Fraction, Flowthrough (A1PI [1]; [4]): 79% | Percent AlPI Eluted by Fraction, 1M NaCl (A1PI [1]; [5]): 10% | Percent AlPI Eluted by Fraction, 2% Acetic Acid (A1PI [1]; [5]): 2% | Percent AlPI Eluted by Fraction, Flowthrough (A1PI [1]; [5]): 80% | Percent AlPI Eluted by Fraction, 1M NaCl (A1PI [1]; [6]): 18% | Percent AlPI Eluted by Fraction, 2% Acetic Acid (A1PI [1]; [6]): 22% | Percent AlPI Eluted by Fraction, Flowthrough (A1PI [1]; [6]): 68% | Percent AlPI Eluted by Fraction, 1M NaCl (A1PI [1]; [7]): 1% | Percent AlPI Eluted by Fraction, 2% Acetic Acid (A1PI [1]; [7]): 43% | Percent AlPI Eluted by Fraction, Flowthrough (A1PI [1]; [7]): 57% | Percent AlPI Eluted by Fraction, 1M NaCl (A1PI [1]; [8]): 0% | Percent AlPI Eluted by Fraction, 2% Acetic Acid (A1PI [1]; [8]): 72% | Percent AlPI Eluted by Fraction, Flowthrough (A1PI [1]; [8]): 28% | Percent AlPI Eluted by Fraction, 1M NaCl (A1PI [1]; [9]): 4% | Percent AlPI Eluted by Fraction, 2% Acetic Acid (A1PI [1]; [9]): 96% | Percent AlPI Eluted by Fraction, Flowthrough (A1PI [1]; [9]): 0% | Percent AlPI Eluted by Fraction, 1M NaCl (A1PI [1]; [10]): 0% | Percent AlPI Eluted by Fraction, 2% Acetic Acid (A1PI [1]; [10]): 100% | Percent AlPI Eluted by Fraction, Flowthrough (A1PI [1]; [10]): 0% | Percent AlPI Eluted by Fraction, 1M NaCl (A1PI [1]; [11]): 0% | Percent AlPI Eluted by Fraction, 2% Acetic Acid (A1PI [1]; [11]): 100% | Percent AlPI Eluted by Fraction, Flowthrough (A1PI [1]; [11]): 0% | Percent AlPI Eluted by Fraction, 1M NaCl (A1PI [1]; [12]): 0% | Percent AlPI Eluted by Fraction, 2% Acetic Acid (A1PI [1]; [12]): 100% | Percent AlPI Eluted by Fraction, Flowthrough (A1PI [1]; [12]): 0% | Percent AlPI Eluted by Fraction, 1M NaCl (A1PI [1]; [13]): 4% | Percent AlPI Eluted by Fraction, 2% Acetic Acid (A1PI [1]; [13]): 96% | Percent AlPI Eluted by Fraction, Flowthrough (A1PI [1]; [13]): 0% | Percent AlPI Eluted by Fraction, 1M NaCl (A1PI [1]; [14]): 0% | Percent AlPI Eluted by Fraction, 2% Acetic Acid (A1PI [1]; [14]): 100% | Percent AlPI Eluted by Fraction, Flowthrough (A1PI [1]; [14]): 0% | Percent AlPI Eluted by Fraction, 1M NaCl (A1PI [1]; [15]): 0% | Percent AlPI Eluted by Fraction, 2% Acetic Acid (A1PI [1]; [15]): 100% | Percent AlPI Eluted by Fraction, Flowthrough (A1PI [1]; [15]): 0% | Percent AlPI Eluted by Fraction, 1M NaCl (A1PI [1]; [16]): 0% | Percent AlPI Eluted by Fraction, 2% Acetic Acid (A1PI [1]; [16]): 93% | Percent AlPI Eluted by Fraction, Flowthrough (A1PI [1]; [16]): 7% | Percent AlPI Eluted by Fraction, 1M NaCl (A1PI [1]; [17]): 0% | Percent AlPI Eluted by Fraction, 2% Acetic Acid (A1PI [1]; [17]): 100% | Percent AlPI Eluted by Fraction, Flowthrough (A1PI [1]; [17]): 0% | Percent AlPI Eluted by Fraction, 1M NaCl (A1PI [1]; [18]): 0% | Percent AlPI Eluted by Fraction, 2% Acetic Acid (A1PI [1]; [18]): 95% | Percent AlPI Eluted by Fraction, Flowthrough (A1PI [1]; [18]): 5% | Percent AlPI Eluted by Fraction, 1M NaCl (A1PI [1]; sequence order, 4° C.): 3% | Percent AlPI Eluted by Fraction, 2% Acetic Acid (A1PI [1]; sequence order, 4° C.): 97% | Percent AlPI Eluted by Fraction, Flowthrough (A1PI [1]; sequence order, 4° C.): 0% | Percent AlPI Eluted by Fraction, 1M NaCl (A1PI [1]; sequence order, 20° C.): 7% | Percent AlPI Eluted by Fraction, 2% Acetic Acid (A1PI [1]; sequence order, 20° C.): 93% | Percent AlPI Eluted by Fraction, Flowthrough (A1PI [1]; sequence order, 20° C.): 0% | Percent AlPI Eluted by Fraction, 1M NaCl (A1PI [1]; [19]): 3% | Percent AlPI Eluted by Fraction, 2% Acetic Acid (A1PI [1]; [19]): 97% | Percent AlPI Eluted by Fraction, Flowthrough (A1PI [1]; [19]): 0% | Percent AlPI Eluted by Fraction, 1M NaCl (A1PI [1]; [20]): 7% | Percent AlPI Eluted by Fraction, 2% Acetic Acid (A1PI [1]; [20]): 93% | Percent AlPI Eluted by Fraction, Flowthrough (A1PI [1]; [20]): 0% | Mass A1PI in Urea Eluate (mg), Activity (A1PI [2]; 1 mg A1PI, eluted with 2M urea, pH 6, elastase inhibition activity assay): 0.36 mg | Mass A1PI in Urea Eluate (mg), Nephelometry (A1PI [2]; 1 mg A1PI, eluted with 2M urea, pH 6, immunonephelometry): 0.45 mg | Specific Activity (A1PI [2]; mass of A1PI by activity assay relative to immunonephelometry, urea eluate): 0.81 mg/mg
